Results: article doi:10.1101/2024.06.14.598999 (bioRxiv, 2024)

What was measured:
[1] = molecular target: T1, AP5 ζ/σ5 subcomplex, purified (mouse GST-AP5ζ-Twin-Strep with human AP5σ5) (mouse | human, UniProt Q3U829 1-807; Q9NUS5 1-200); test: SEC
T1 sequence (looked up) 1: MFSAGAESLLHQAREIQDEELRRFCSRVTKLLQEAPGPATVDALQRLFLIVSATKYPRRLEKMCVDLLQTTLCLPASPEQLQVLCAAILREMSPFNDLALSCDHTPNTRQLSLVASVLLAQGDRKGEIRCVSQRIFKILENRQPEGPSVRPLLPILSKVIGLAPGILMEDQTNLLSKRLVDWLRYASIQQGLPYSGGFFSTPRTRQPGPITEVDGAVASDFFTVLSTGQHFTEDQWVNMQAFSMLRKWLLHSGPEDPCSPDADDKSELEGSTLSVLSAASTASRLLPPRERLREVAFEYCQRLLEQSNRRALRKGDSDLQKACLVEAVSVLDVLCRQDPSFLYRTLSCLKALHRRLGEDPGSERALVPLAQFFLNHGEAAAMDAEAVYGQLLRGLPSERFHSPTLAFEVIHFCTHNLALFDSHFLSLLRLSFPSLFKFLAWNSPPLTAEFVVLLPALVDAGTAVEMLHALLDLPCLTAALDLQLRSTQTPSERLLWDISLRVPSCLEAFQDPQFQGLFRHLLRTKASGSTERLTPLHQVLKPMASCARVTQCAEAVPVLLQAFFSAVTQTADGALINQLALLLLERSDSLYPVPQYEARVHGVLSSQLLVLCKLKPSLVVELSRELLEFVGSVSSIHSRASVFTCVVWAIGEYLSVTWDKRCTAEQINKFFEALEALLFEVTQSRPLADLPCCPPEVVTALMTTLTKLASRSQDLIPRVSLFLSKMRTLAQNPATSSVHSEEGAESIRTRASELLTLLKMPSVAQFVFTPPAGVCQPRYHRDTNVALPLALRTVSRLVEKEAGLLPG
T1 sequence (looked up) 2: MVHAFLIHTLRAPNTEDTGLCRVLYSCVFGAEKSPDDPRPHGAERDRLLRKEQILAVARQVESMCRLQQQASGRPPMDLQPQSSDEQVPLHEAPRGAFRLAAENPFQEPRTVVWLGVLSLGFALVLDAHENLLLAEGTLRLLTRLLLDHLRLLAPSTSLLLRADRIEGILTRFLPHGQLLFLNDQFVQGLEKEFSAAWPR

[2] = molecular target: T2, AP5 β5^trunk/µ5 subcomplex, purified (human GST-AP5β5(1-632)-Twin-Strep with mouse AP5μ5) (human | mouse, UniProt Q2VPB7 1-632; Q8BJ63 1-490); test: SEC
T2 sequence (looked up) 1: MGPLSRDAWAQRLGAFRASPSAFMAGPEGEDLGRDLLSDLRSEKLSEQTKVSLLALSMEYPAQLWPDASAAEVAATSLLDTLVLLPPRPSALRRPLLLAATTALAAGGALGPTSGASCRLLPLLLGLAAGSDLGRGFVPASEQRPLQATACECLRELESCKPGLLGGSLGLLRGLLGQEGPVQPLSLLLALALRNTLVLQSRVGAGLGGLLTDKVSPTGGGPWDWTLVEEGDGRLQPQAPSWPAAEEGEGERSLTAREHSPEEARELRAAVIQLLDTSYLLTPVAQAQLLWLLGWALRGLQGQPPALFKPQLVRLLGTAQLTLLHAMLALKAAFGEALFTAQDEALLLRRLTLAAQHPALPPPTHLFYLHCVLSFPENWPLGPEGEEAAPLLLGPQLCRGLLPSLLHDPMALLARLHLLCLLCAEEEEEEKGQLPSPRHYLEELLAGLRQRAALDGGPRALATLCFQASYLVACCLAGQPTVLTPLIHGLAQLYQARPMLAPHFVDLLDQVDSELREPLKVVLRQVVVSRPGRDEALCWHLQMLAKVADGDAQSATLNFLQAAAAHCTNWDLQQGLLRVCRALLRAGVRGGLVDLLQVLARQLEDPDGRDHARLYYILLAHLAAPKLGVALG
T2 sequence (looked up) 2: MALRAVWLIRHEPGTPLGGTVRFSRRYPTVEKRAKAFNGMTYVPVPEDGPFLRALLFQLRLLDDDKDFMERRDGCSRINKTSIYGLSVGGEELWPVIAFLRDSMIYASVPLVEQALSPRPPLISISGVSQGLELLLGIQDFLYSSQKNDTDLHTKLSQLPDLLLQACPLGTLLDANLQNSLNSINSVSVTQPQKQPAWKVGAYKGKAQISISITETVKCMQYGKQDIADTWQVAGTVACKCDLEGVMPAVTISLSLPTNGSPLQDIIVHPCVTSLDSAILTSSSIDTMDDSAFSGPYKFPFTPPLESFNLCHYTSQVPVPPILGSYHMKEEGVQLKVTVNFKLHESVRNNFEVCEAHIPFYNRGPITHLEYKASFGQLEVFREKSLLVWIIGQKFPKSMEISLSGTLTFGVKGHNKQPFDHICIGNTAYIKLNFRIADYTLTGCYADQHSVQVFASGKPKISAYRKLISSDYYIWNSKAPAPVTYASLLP

B1: SPG11^WD40-hairpin (human SPG11 residues 1-525) as incubated with the AP5 subcomplexes for size exclusion chromatography (domain or fragment, UniProt Q96JI7 1-525, looked up)
chain: MAAEEGVASAASAGGSWGTAAMGRVLPMLLVPVPAEAMGQLGSRAQLRTQPEALGSLTAAGSLQVLSLTPGSRGGGRCCLEGPFWHFLWEDSRNSSTPTEKPKLLALGENYELLIYEFNLKDGRCDATILYSCSREALQKLIDDQDISISLLSLRILSFHNNTSLLFINKCVILHIIFPERDAAIRVLNCFTLPLPAQAVDMIIDTQLCRGILFVLSSLGWIYIFDVVDGTYVAHVDLALHKEDMCNEQQQEPAKISSFTSLKVSQDLDVAVIVSSSNSAVALNLNLYFRQHPGHLLCERILEDLPIQGPKGVDEDDPVNSAYNMKLAKFSFQIDRSWKAQLSSLNETIKNSKLEVSCCAPWFQDILHLESPESGNHSTSVQSWAFIPQDIMHGQYNVLQKDHAKTSDPGRSWKIMHISEQEEPIELKCVSVTGFTALFTWEVERMGYTITLWDLETQGMQCFSLGTKCIPVDSSGDQQLCFVLTENGLSLILFGLTQEEFLNRLMIHGSASTVDTLCHLNGWGR
B1: binds [1]; binds [2].
